Numbering of substitutions follows the chain as printed.
B1: N^10A: human FSHR with Ala substituted for N10 (protein)
chain: CHHRICHCSARVFLCQESKVTEIPSDLPRNAIELRFVLTKLRVIQKGAFSGFGDLEKIEISQNDVLEVIEADVFSNLPKLHEIRIEKANNLLYINPEAFQNLPNLQYLLISNTGIKHLPDVHKIHSLQKVLLDIQDNINIHTIERNSFVGLSFESVILWLNKNGIQEIHNCAFNGTQLDELNLSDNNNLEELPNDVFHGASGPVILDISRTRIHSLPSYGLENLKKLRARSTYNLKKLPTLEKLVALMEASLTYPSHCCAFANWRRQISELHPICNKSILRQEVDYMTQARGQRSSLAEDNESSYSRGFDMTYTEFDYDLCNEVVDVTCSPKPDAFNPCEDIMGYNILRVLIWFISILAITGNIIVLVILTTSQYKLTVPRFLMCNLAFADLCIGIYLLLIASVDIHTKSQYHNYAIDWQTGAGCDAAGFFTVFASELSVYTLTAITLERWHTITHAMQLDCKVQLRHAASVMVMGWIFAFAAALFPIFGISSYMKVSICLPMDIDSPLSQLYVMSLLVLNVLAFVVICGCYIHIYLTVRNPNIVSSSSDTRIAKRMAMLIFTDFLCMAPISFFAISASLKVPLITVSKAKILLVLFHPINSCANPFLYAIFTKNFRRDFFILLSKCGCYEMQAQIYRTETSSTVHNTHPRNGHCSSAPRVTSGSTYILVPLSHLAQN
B2: L^583 A: human FSHR exoloop 3 mutant, Ala for L583 (protein)
chain: B1 chain with A10N, L584A
B3: L^583 F: human FSHR mutant, Phe for L583 (protein)
chain: B1 chain with A10N, L584F
B4: L^27A: human FSHR with Ala substituted for L27 (protein)
chain: B1 chain with A10N, L27A
B5: C^15A: human FSHR with Ala substituted for C15 (protein)
chain: B1 chain with A10N, C15A
B6: L^583 Y: human FSHR mutant, Tyr for L583 (protein)
chain: B1 chain with A10N, L584Y
B7: L^583 Q: human FSHR mutant, Gln for L583 (protein)
chain: B1 chain with A10N, L584Q
B8: wild type: wild type human FSH receptor expressed in HEK 293 cells (protein)
chain: B1 chain with A10N
B9: S^18A: human FSHR with Ala substituted for S18 (protein)
chain: B1 chain with A10N, S18A
B10: L^14A: human FSHR with Ala substituted for L14 (protein)
chain: B1 chain with A10N, L14A
B11: D^26A: human FSHR with Ala substituted for D26 (protein)
chain: B1 chain with A10N, D26A
B12: P^24A: human FSHR with Ala substituted for P24 (protein)
chain: B1 chain with A10N, P24A

Columns and labels:
[1] = test system: human FSHR; experiment: ^125I-FSH binding to wild type and mutant FSH receptors on intact stably transfected HEK 293 cells; conditions: for FSH binding / Kd compared with the wild type receptor, in words: intact HEK 293 cells
Protocol: (§1) Mutant FSHR cDNAs were prepared in the pSELECT vector using the Altered Sites Mutagenesis system (Promega), sequenced on a Beckman CEQ 2000XL capillary sequencer, subcloned into pcDNA3 (Invitrogen), and sequenced again to verify mutation sequences. […] Wild type and mutant receptor constructs were transfected into HEK 293 cells by the calcium phosphate method as previously described. Stable cell lines were established in minimum essential medium containing 10% horse serum and 500 μg/ml of G418. These cells were used for hormone binding, cAMP production. All assays were carried out in duplicate and repeated 4-5 times, and means±S.D. were calculated.
(§2) The Kd values were determined by Scatchard plots. For intracellular cAMP assay, cells were washed twice with Dulbecco's modified Eagle's medium and incubated in the medium containing 0.1 μg/ml isobutylmethylxanthine for 15 mm. Increasing concentrations of FSH were then added and incubation was continued for 45 mm at 37° C. After removing the medium, the cells were rinsed once with fresh medium without isobutylmethylxanthine, lysed in 70% ethanol, freeze-thawed in liquid nitrogen, and scraped.
Each mutant human FSHR cDNA was prepared in a pSELECT vector using the non-PCR based Altered Sites Mutagenesis System (Promega), sequenced on a Beckman CEQ 2000XL capillary sequencer and subcloned into pcDNA3 (Invitrogen) as described. After subcloning pcDNA3 the mutant cDNAs were sequenced again. Plasmids were transfected into human embryonic kidney (HEK) 293 cells by the calcium phosphate method. Stable cell lines were established in minimum essential medium containing 10% horse serum and 500 μg/ml of G-418, and then used for hormone binding and cAMP assay. All assays were carried out in duplicate and repeated 4-6 times. Means and standard variations were calculated.
(§3) Human FSH (the National Hormone and Pituitary Program) was radioiodinated as previously described for radioiodination of hCG. […] The Kd values were determined by Scatchard plots. Truncated exodomain was solubilized in Nonidet P-40 and assayed for hormone binding as described previously. For intracellular cAMP assay, cells were washed twice with Dulbecco's modified Eagle's media and incubated in the media containing isobutylmethylxanthine (0.1 mg/ml) for 15 minutes. Increasing concentrations of FSH were then added and the incubation was continued for 45 minutes at 37° C. After removing the media, the cells were rinsed once with fresh media without isobutylmethylxanthine, lysed in 70% ethanol, freeze-thawed in liquid nitrogen, and scraped. […] Exoloop 3 of FSHR was modeled based on the crystal structure of rhodopsin as a template.

[2] = test system: human FSHR; experiment: FSH dependent intracellular cAMP assay, wild type and mutant FSHR in HEK 293 cells; assay type: cell-based; conditions: for FSH dependent cAMP induction / EC50 compared with the wild type receptor, in words: HEK 293 cells
Protocol: as §1, §2, §3

[3] = test system: FSHR; experiment: ^125I-FSH binding to solubilized FSHR (NP-40); design: species or system human; conditions: solubilized mutant receptors
Protocol: Transfected cells were washed twice with ice cold 150 mM NaCl, 20 mM HEPES, pH 7.4 (buffer A). Cells were scraped on ice, collected in buffer A containing protease inhibitors (1 mM phenylmethylsulfonyl fluoride, 5 mM N-ethylmaleimide, and 10 mM EDTA), and pelleted by centrifugation at 1300×g for 10 minutes. Cells were resuspended in 0.6 ml of buffer A containing 1% NP-40, 20% glycerol, and the above protease inhibitors (buffer B), incubated on ice for 15 mm, and diluted with 5.4 ml of buffer A containing 20% glycerol plus the protease inhibitors (buffer C). The mixture was centrifuged at 100,000×g for 60 minutes. […] After incubation for 12 hours at 4° C., the solution was thoroughly mixed with 250 μl of buffer A containing bovine γ-globulin (5 μg/ml) and 750 μl of buffer A containing 20% polyethylene glycol 8000. After incubation for 10 minutes at 4° C., samples were pelleted at 1300×g for 30 mm and supernatants removed. Pellets were resuspended in 1.5 ml of buffer A containing 20% polyethylene glycol 8000, centrifuged, and counted for radioactivity.

[4] = test system: human FSHR; experiment: Inositol phosphate assay, FSHR exoloop 3 mutants in HEK 293 cells, FSH stimulated; assay type: cell-based; conditions: for IPt (CPM): total IP production in response to increasing concentrations of FSH, NS = not significant
Protocol: Stable cells were plated in 12 well plates and grown in inositol free DMEM (Atlanta Biologicals) supplemented with 8% heat-inactivated horse serum and 2 μCi/ml ^3H-inositol (N EN) for 48 h to 40-50% confluency. After removing the medium, the cells were incubated in 1 ml of fresh wash buffer consisting of DMEM without inositol and 15 mM HEPES (pH 7.3) for 1 hour at 37° C. This medium was removed and 0.3 ml wash buffer containing 20 mM LiCl was added and incubated for 15 minutes at 37° C. After the cells were stimulated with increasing concentrations of hormone for 30 minutes at 37° C., the incubation was terminated by the removal of medium and the addition of 0.25 ml of 0.6 N HCl to each well. The cells were scraped and transferred into microcentrifuge tubes, and the wells were again washed with 0.25 ml of 0.6 N HCl. The combined washes were treated with 0.9 ml of a mixture of chloroform:methanol (2:1), vortexed and centrifuged at 1000×g for 5 minutes at room temperature. The top aqueous layer, which was free of phospholipids, was removed and the remaining chloroform layer treated with 0.2 ml of methanol:water (1:1), vortexed and centrifuged. This aqueous layer was added to the previous aqueous layer and the samples dried in a vacuum concentrator. The dried samples were redissolved in 0.5 ml of 50 mM Tris-HCl, pH 8 and applied to Dowex AG 1-X8 formate (BIO-RAD) columns. The microcentrifuge tubes were washed twice with 0.5 ml of the same buffer and the washes applied to the columns for a total of 1.5 ml. The columns were sequentially washed with 4.5 ml H2O and 4.5 ml 60 mM ammonium formate and 5 mM sodium tetraborate to elute the free inositol and the glycerol phosphoinositol. IP1, IP2 and IP3 were sequentially eluted with 4 ml of 0.1 N formic acid in 0.2 M, 0.75 M ammonium formate and 1.1 M ammonium formate, respectively and collected in 1 ml fractions. Aliquots of 200 μl were counted for radioactivity in 1.5 ml of Ultima AF scintillation fluid (Packard). Peak radioactivities were used for the data analysis.
Target sequence in this assay (P23945 18-366 limits assumed): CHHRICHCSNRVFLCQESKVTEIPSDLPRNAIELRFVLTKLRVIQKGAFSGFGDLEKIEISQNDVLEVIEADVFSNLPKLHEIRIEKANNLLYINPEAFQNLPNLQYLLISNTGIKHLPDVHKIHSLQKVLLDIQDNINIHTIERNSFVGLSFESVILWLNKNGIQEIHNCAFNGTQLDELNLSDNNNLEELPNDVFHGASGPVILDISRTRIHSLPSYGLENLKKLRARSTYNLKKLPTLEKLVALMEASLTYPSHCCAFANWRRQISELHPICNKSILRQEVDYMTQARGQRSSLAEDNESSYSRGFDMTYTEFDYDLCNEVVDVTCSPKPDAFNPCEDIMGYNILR

Molecule	FSH binding / Kd compared with the wild type receptor, in words [1]	FSH dependent cAMP induction / EC50 compared with the wild type receptor, in words [2]	FSH binding to receptors solubilized in NP-40 [3]	other results
B1	improved hormone binding	lower than the wild type value	–	FSH binding / Kd compared with the wild type receptor, in words ([1]; listed as FSHR^N10A): lower than the wild type value
B2	–	did not produce cAMP	–	–
B3	–	induced significant amounts of cAMP with reasonable EC50 values	–	–
B4	completely abrogated hormone binding	–	did not bind	–
B5	abolished hormone binding	–	did not bind	–
B6	–	induced significant amounts of cAMP with reasonable EC50 values	–	IP induction (IP1, IP2, IP3, IPt) in response to FSH, in words ([4]; HEK 293 cells): produced a small amount of IPt; IPt (CPM) [4]: 440 ± 17 CPM
B7	–	induced a marginal level of cAMP	–	–
B8	–	–	–	Kd ([1]; ^125I-FSH binding, Scatchard plots, HEK 293 cells): 4 nM; IPt (CPM) [4]: 1,660 ± 240 CPM
B9	higher Kd value	considerably lower EC50 value	–	reduction (improvement) of the EC50 value of cAMP induction compared with wild type ([2]; FSH dependent cAMP): 3 fold
B10	improved hormone binding	lower than the wild type value	–	FSH binding / Kd compared with the wild type receptor, in words ([1]; listed as FSHR^L14A): lower than the wild type value
B11	completely abrogated hormone binding	–	did not bind	–
B12	completely abrogated hormone binding	–	did not bind	–

Reference: US20050142135A1, “Agents and methods for modulating interactions between gonadotropin hormones and receptors” (University of Kentucky Research Foundation, priority 2003, published 2005)
